# B1: TPR t1 (parent)
# chain: GACCAAUCUGCCCUCAGAGCUCGAGAACAUCUUCGGAUGCAGAGGAGGCAGGCUUCGGUGGCGCGAUAGCGCCAACGUCCUCAACCUCCAAUGCAUCCCACCACAUGAUGAUGCCUGAAGAGCCUUGGUUUUUUG
# Variants of: B1
# Test: polymerase ribozyme fitness, log enrichment relative to wild type (log ratio); higher = more active; in vitro selection for triplet polymerase activity
# Procedure, shortened: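 Fitness is a logarithmic measure of how a genotype enriched relative to the wild type, with replicate averages weighted by inverse variance. The logarithm uses base 2, and enrichment came from Illumina sequencing of input and output libraries. Those libraries were PCR-built, transcribed mutants of each subunit of a heterodimeric triplet polymerase ribozyme, passed through one triplicate in vitro selection round that included frozen incubation at −7 °C, gel excision of extended constructs and streptavidin-bead capture. Genotypes were kept only if they had ≥10 input reads and ≥1 read per output.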
row,Variant,polymerase ribozyme fitness (log ratio)
1,C72U G117C G120U U131G,-5.53
2,C73A G110A G120A,-1.61
3,A74U A83G,-0.972
4,C73U A84C U92G U112A,-2.54
5,C72U G110A G113A,-4.61
6,C73G A111C,-0.327
7,C72U U92G,-2.59
8,C73G C104U,-0.454
9,A74G G110A A111G,0.0395
10,C73G C82A U92A,-4.06
11,A74G A95U,-0.0785
12,A74C A75U G110A,-1.52
13,C73U A84G,-0.874
14,C72U A103U,-5.16
15,C72U A111C,0.581
16,C72U G93U C115U,-2.06
17,A74C U96G,-1.28
18,C73A A111U,-2.93
19,C73G A121G,1.16
20,C72U C88U U131C U133A,-0.924
21,C72U G127C U132C,-1.97

row,Variant,polymerase ribozyme fitness (log ratio)
1,C72U U81G,-3.35
2,A74C A95U G113U U125A,-4.37
3,C73U A103U,-4.35
4,C72U U81C G93C A119U G120C,-0.213
5,C72U C123A,0.21
6,A74U C89G U112A,-2.2
7,C73U U116A,-3.52
8,A74G A119G,0.969
9,C72U U81C U116A,-3.5
10,C72U C79U G122A,-0.67
11,C73G C89A C104U A119U,-3.03
12,C72U C104A,-2.05
13,C73A U133A,0.106
14,C72U G127C,-1.75
15,C72U G127U,-1.84
16,C73U C89A G120U,-2.25
17,C73G A118U,-0.0973
18,C73U A84G G117C,-4.85
19,C73U A95C,-1.16
20,C73U G120U,0.0471
21,C73A G110C U125A U129A,-6.92

row,Variant,polymerase ribozyme fitness (log ratio)
1,C72U C124U,0.818
2,C72U C124A,1.54
3,C73A A119U U132C,-0.485
4,C73G A91C G127A,-3.34
5,C73A C94U U130A,-0.716
6,C72U C102G U133A,-5.27
7,C72U U109G G113A,-5.96
8,C73G C82A,-1.99
9,C72U C102A G120U,-2.07
10,A74C C124U,1.08
11,A74U A75U U81A G127U,-1.96
12,C73U C123U,0.98
13,C73U C123G,2.14
14,C72U C85A,-1.82
15,C73U C94A C104U G117U,-3.3
16,C72G U130A,-0.458
17,C72U C114A,-1.67
18,C73U G77A G120A,0.241
19,C73A C97A,-4.87
20,C72U C85A A105U,-3.17
21,C72U A105U U131C U132A,-2.36

row,Variant,polymerase ribozyme fitness (log ratio)
1,C73U A121G,2.17
2,C72U G113C,-2.1
3,C72U G113U,-2.87
4,C73A C89U G110C,-5.15
5,C73G U78A,-0.494
6,C73U C123G C124G,2.14
7,C72U U78C C86G G127C,-2.25
8,C72U G110A U130A,-1.72
9,C73U U130A U131A,-0.703
10,A74U C82U G120A G122U,-0.0704
11,C73G U78A C94A U125G,-1.59
12,C72U G93C,-0.856
13,C73A A90U,-3.12
14,A74C G113U U133A,-3.26
15,C72U A83C C114U,-1.96
16,C72U C82A,-0.812
17,C72U C82U,-0.823
18,C73G A95C C124U G128U U129C,-1.71
19,C73A U92A C104U,-2.28
20,C72U U81A A91U A118U,-3.42
21,A74G C79A C82A U112A,-2.42
